T1: FcγRIIa H (human, UniProt P12318 34-217)
T1 construct: extracellular domain; also called FcgRIIa H; 2aH; not shown: His tag at the C terminus
T1 sequence (looked up): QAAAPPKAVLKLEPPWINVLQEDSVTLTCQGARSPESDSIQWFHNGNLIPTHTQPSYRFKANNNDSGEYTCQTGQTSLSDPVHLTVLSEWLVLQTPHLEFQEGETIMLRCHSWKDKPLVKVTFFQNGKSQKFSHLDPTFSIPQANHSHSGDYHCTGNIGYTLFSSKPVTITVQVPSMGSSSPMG

T2: FcγRIIb (human, UniProt P31994 43-217)
T2 construct: extracellular domain; also called FcgRIIb; 2b; not shown: His tag at the C terminus
T2 sequence (looked up): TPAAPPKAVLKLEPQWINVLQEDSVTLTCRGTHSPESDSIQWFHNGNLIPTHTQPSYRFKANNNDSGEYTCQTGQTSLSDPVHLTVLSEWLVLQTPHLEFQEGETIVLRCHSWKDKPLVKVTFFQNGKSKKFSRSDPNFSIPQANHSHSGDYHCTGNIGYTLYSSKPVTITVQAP


Columns and labels:
FcγRIIa H [1] = biological target: T1, FcγRIIa H; assay: SPR (Biacore); He/Con_2aH divided by He/Con_2b (FcγRIIa H versus FcγRIIb)
Description: (§1) The heterodimerized antibodies He Abs in which one of the H chains was introduced with an alteration were assayed for their binding activities to each activating FcγR and inhibitory FcγR according to the method described in Example 4. […] The activating FcγRs in FIGS. 26, 27, 28, and 29 are FcγRIa, FcγRIIa (R), FcγRIIa (H), and FcγRIIIa, respectively.
(§2) Analysis of interaction between objective antibody and the FcγR was carried out using Biacore T100 (GE Healthcare). HBS-EP+ (GE Healthcare) was used as the running buffer, and the measurement temperature was set to 25° C. Chips produced by immobilizing the antigen peptide by the amine coupling method to a Series S Sencor Chip CM5 (GE Healthcare), or alternatively, chips produced by allowing preliminarily biotinylated antigen peptides to interact with and immobilize onto a Series S Sensor Chip SA (certified) (GE Healthcare) were used. Antibodies of interest were captured onto an antigen peptide-immobilized chip, and allowed to interact to each FcγR diluted with running buffer. To regenerate and repeatedly use the chip, the antibodies captured on the chip were washed off by reacting 10 mM glycine-HCl, pH 1.5.

FcγRIIa H [2] = biological target: T1, FcγRIIa H; assay: SPR (Biacore), FcγR passed over captured antibody; binding amount as % of control GpH7-A5/GpH7-B3/GpL16-k0 (=100)
Description: as §1, §2

FcγRIIb = biological target: T2, FcγRIIb; assay: as above
Description: as §1, §2

He_2aH/2b (IIaH/IIb) (FcγRIIa H [1]) [ratio]	He/Con_2aH (FcγRIIa H [2])	He/Con_2b (FcγRIIb)	Binder
1.22	98.8 relative, control = 100	81.1 relative, control = 100	GpH7-A5/GpH7-B3 variant S324_01G/GpL16-k0 (antibody, human IgG1, kappa, He Ab: mutation in the GpH7-B3 H chain only) heavy 1: not shown heavy 2: not shown light: DIVMTQSPLSLPVTPGEPASISCQASESLVHSNRNTYLHWYLQKPGQSPQLLIYKVSNRFSGVPDRFSGSGSGTDFTLKISRVEAEDVGVYYCSQNTHVPPTFGQGTKVEIERTVAAPSVFIFPPSDEQLKSGTASVVCLLNNFYPREAKVQWKVDNALQSGNSQESVTEQDSKDSTYSLSSTLTLSKADYEKHKVYACEVTHQGLSSPVTKSFNRGEC
1.64	67.3 relative, control = 100	41 relative, control = 100	GpH7-A5/GpH7-B3 variant P329_13S/GpL16-k0 (antibody, human IgG1, kappa, He Ab: mutation in the GpH7-B3 H chain only) heavy 1: not shown heavy 2: not shown light: DIVMTQSPLSLPVTPGEPASISCQASESLVHSNRNTYLHWYLQKPGQSPQLLIYKVSNRFSGVPDRFSGSGSGTDFTLKISRVEAEDVGVYYCSQNTHVPPTFGQGTKVEIERTVAAPSVFIFPPSDEQLKSGTASVVCLLNNFYPREAKVQWKVDNALQSGNSQESVTEQDSKDSTYSLSSTLTLSKADYEKHKVYACEVTHQGLSSPVTKSFNRGEC
1.5	68.7 relative, control = 100	45.7 relative, control = 100	GpH7-A5/GpH7-B3 variant P329_15Y/GpL16-k0 (antibody, human IgG1, kappa, He Ab: mutation in the GpH7-B3 H chain only) heavy 1: not shown heavy 2: not shown light: DIVMTQSPLSLPVTPGEPASISCQASESLVHSNRNTYLHWYLQKPGQSPQLLIYKVSNRFSGVPDRFSGSGSGTDFTLKISRVEAEDVGVYYCSQNTHVPPTFGQGTKVEIERTVAAPSVFIFPPSDEQLKSGTASVVCLLNNFYPREAKVQWKVDNALQSGNSQESVTEQDSKDSTYSLSSTLTLSKADYEKHKVYACEVTHQGLSSPVTKSFNRGEC
1.64	66.2 relative, control = 100	40.4 relative, control = 100	GpH7-A5/GpH7-B3 variant P329_18N/GpL16-k0 (antibody, human IgG1, kappa, He Ab: mutation in the GpH7-B3 H chain only) heavy 1: not shown heavy 2: not shown light: DIVMTQSPLSLPVTPGEPASISCQASESLVHSNRNTYLHWYLQKPGQSPQLLIYKVSNRFSGVPDRFSGSGSGTDFTLKISRVEAEDVGVYYCSQNTHVPPTFGQGTKVEIERTVAAPSVFIFPPSDEQLKSGTASVVCLLNNFYPREAKVQWKVDNALQSGNSQESVTEQDSKDSTYSLSSTLTLSKADYEKHKVYACEVTHQGLSSPVTKSFNRGEC
1.69	66.1 relative, control = 100	39.1 relative, control = 100	GpH7-A5/GpH7-B3 variant P329_16H/GpL16-k0 (antibody, human IgG1, kappa, He Ab: mutation in the GpH7-B3 H chain only) heavy 1: not shown heavy 2: not shown light: DIVMTQSPLSLPVTPGEPASISCQASESLVHSNRNTYLHWYLQKPGQSPQLLIYKVSNRFSGVPDRFSGSGSGTDFTLKISRVEAEDVGVYYCSQNTHVPPTFGQGTKVEIERTVAAPSVFIFPPSDEQLKSGTASVVCLLNNFYPREAKVQWKVDNALQSGNSQESVTEQDSKDSTYSLSSTLTLSKADYEKHKVYACEVTHQGLSSPVTKSFNRGEC
1.31	102 relative, control = 100	78.3 relative, control = 100	GpH7-A5/GpH7-B3 variant S324_02A/GpL16-k0 (antibody, human IgG1, kappa, He Ab: mutation in the GpH7-B3 H chain only) heavy 1: not shown heavy 2: not shown light: DIVMTQSPLSLPVTPGEPASISCQASESLVHSNRNTYLHWYLQKPGQSPQLLIYKVSNRFSGVPDRFSGSGSGTDFTLKISRVEAEDVGVYYCSQNTHVPPTFGQGTKVEIERTVAAPSVFIFPPSDEQLKSGTASVVCLLNNFYPREAKVQWKVDNALQSGNSQESVTEQDSKDSTYSLSSTLTLSKADYEKHKVYACEVTHQGLSSPVTKSFNRGEC
1.65	62.4 relative, control = 100	37.9 relative, control = 100	GpH7-A5/GpH7-B3 variant P329_14T/GpL16-k0 (antibody, human IgG1, kappa, He Ab: mutation in the GpH7-B3 H chain only) heavy 1: not shown heavy 2: not shown light: DIVMTQSPLSLPVTPGEPASISCQASESLVHSNRNTYLHWYLQKPGQSPQLLIYKVSNRFSGVPDRFSGSGSGTDFTLKISRVEAEDVGVYYCSQNTHVPPTFGQGTKVEIERTVAAPSVFIFPPSDEQLKSGTASVVCLLNNFYPREAKVQWKVDNALQSGNSQESVTEQDSKDSTYSLSSTLTLSKADYEKHKVYACEVTHQGLSSPVTKSFNRGEC
2.63	46.4 relative, control = 100	17.6 relative, control = 100	GpH7-A5/GpH7-B3 variant P329_12R/GpL16-k0 (antibody, human IgG1, kappa, He Ab: P329R (EU numbering) in the GpH7-B3 H chain only; also called GpH7-A5/GpH7-B12/GpL16-k0) heavy 1: not shown heavy 2: not shown light: DIVMTQSPLSLPVTPGEPASISCQASESLVHSNRNTYLHWYLQKPGQSPQLLIYKVSNRFSGVPDRFSGSGSGTDFTLKISRVEAEDVGVYYCSQNTHVPPTFGQGTKVEIERTVAAPSVFIFPPSDEQLKSGTASVVCLLNNFYPREAKVQWKVDNALQSGNSQESVTEQDSKDSTYSLSSTLTLSKADYEKHKVYACEVTHQGLSSPVTKSFNRGEC
1.26	38.7 relative, control = 100	30.7 relative, control = 100	GpH7-A5/GpH7-B3 variant P329_19Q/GpL16-k0 (antibody, human IgG1, kappa, He Ab: mutation in the GpH7-B3 H chain only) heavy 1: not shown heavy 2: not shown light: DIVMTQSPLSLPVTPGEPASISCQASESLVHSNRNTYLHWYLQKPGQSPQLLIYKVSNRFSGVPDRFSGSGSGTDFTLKISRVEAEDVGVYYCSQNTHVPPTFGQGTKVEIERTVAAPSVFIFPPSDEQLKSGTASVVCLLNNFYPREAKVQWKVDNALQSGNSQESVTEQDSKDSTYSLSSTLTLSKADYEKHKVYACEVTHQGLSSPVTKSFNRGEC

More lines, now with the values behind:

Binder	He_2aH/2b (IIaH/IIb) (FcγRIIa H [1]) [ratio]	He/Con_2aH (FcγRIIa H [2])	He/Con_2b (FcγRIIb)
GpH7-A5/GpH7-B3 variant P329_02A/GpL16-k0 (antibody, human IgG1, kappa, He Ab: mutation in the GpH7-B3 H chain only) heavy 1: not shown heavy 2: not shown light: DIVMTQSPLSLPVTPGEPASISCQASESLVHSNRNTYLHWYLQKPGQSPQLLIYKVSNRFSGVPDRFSGSGSGTDFTLKISRVEAEDVGVYYCSQNTHVPPTFGQGTKVEIERTVAAPSVFIFPPSDEQLKSGTASVVCLLNNFYPREAKVQWKVDNALQSGNSQESVTEQDSKDSTYSLSSTLTLSKADYEKHKVYACEVTHQGLSSPVTKSFNRGEC	1.62	65.7 relative, control = 100	40.5 relative, control = 100
GpH7-A5/GpH7-B3 variant P329_03V/GpL16-k0 (antibody, human IgG1, kappa, He Ab: mutation in the GpH7-B3 H chain only) heavy 1: not shown heavy 2: not shown light: DIVMTQSPLSLPVTPGEPASISCQASESLVHSNRNTYLHWYLQKPGQSPQLLIYKVSNRFSGVPDRFSGSGSGTDFTLKISRVEAEDVGVYYCSQNTHVPPTFGQGTKVEIERTVAAPSVFIFPPSDEQLKSGTASVVCLLNNFYPREAKVQWKVDNALQSGNSQESVTEQDSKDSTYSLSSTLTLSKADYEKHKVYACEVTHQGLSSPVTKSFNRGEC	1.57	60.4 relative, control = 100	38.5 relative, control = 100
GpH7-A5/GpH7-B3 variant P329_11K/GpL16-k0 (antibody, human IgG1, kappa, He Ab: P329K (EU numbering) in the GpH7-B3 H chain only; also called GpH7-A5/GpH7-B13/GpL16-k0) heavy 1: not shown heavy 2: not shown light: DIVMTQSPLSLPVTPGEPASISCQASESLVHSNRNTYLHWYLQKPGQSPQLLIYKVSNRFSGVPDRFSGSGSGTDFTLKISRVEAEDVGVYYCSQNTHVPPTFGQGTKVEIERTVAAPSVFIFPPSDEQLKSGTASVVCLLNNFYPREAKVQWKVDNALQSGNSQESVTEQDSKDSTYSLSSTLTLSKADYEKHKVYACEVTHQGLSSPVTKSFNRGEC	2.74	46.2 relative, control = 100	16.9 relative, control = 100
GpH7-A5/GpH7-B3 variant P329_04F/GpL16-k0 (antibody, human IgG1, kappa, He Ab: mutation in the GpH7-B3 H chain only) heavy 1: not shown heavy 2: not shown light: DIVMTQSPLSLPVTPGEPASISCQASESLVHSNRNTYLHWYLQKPGQSPQLLIYKVSNRFSGVPDRFSGSGSGTDFTLKISRVEAEDVGVYYCSQNTHVPPTFGQGTKVEIERTVAAPSVFIFPPSDEQLKSGTASVVCLLNNFYPREAKVQWKVDNALQSGNSQESVTEQDSKDSTYSLSSTLTLSKADYEKHKVYACEVTHQGLSSPVTKSFNRGEC	1.38	44.5 relative, control = 100	32.2 relative, control = 100
GpH7-A5/GpH7-B3 variant P329_07I/GpL16-k0 (antibody, human IgG1, kappa, He Ab: mutation in the GpH7-B3 H chain only) heavy 1: not shown heavy 2: not shown light: DIVMTQSPLSLPVTPGEPASISCQASESLVHSNRNTYLHWYLQKPGQSPQLLIYKVSNRFSGVPDRFSGSGSGTDFTLKISRVEAEDVGVYYCSQNTHVPPTFGQGTKVEIERTVAAPSVFIFPPSDEQLKSGTASVVCLLNNFYPREAKVQWKVDNALQSGNSQESVTEQDSKDSTYSLSSTLTLSKADYEKHKVYACEVTHQGLSSPVTKSFNRGEC	1.56	53.8 relative, control = 100	34.6 relative, control = 100
GpH7-A5/GpH7-B3 variant P329_06M/GpL16-k0 (antibody, human IgG1, kappa, He Ab: mutation in the GpH7-B3 H chain only) heavy 1: not shown heavy 2: not shown light: DIVMTQSPLSLPVTPGEPASISCQASESLVHSNRNTYLHWYLQKPGQSPQLLIYKVSNRFSGVPDRFSGSGSGTDFTLKISRVEAEDVGVYYCSQNTHVPPTFGQGTKVEIERTVAAPSVFIFPPSDEQLKSGTASVVCLLNNFYPREAKVQWKVDNALQSGNSQESVTEQDSKDSTYSLSSTLTLSKADYEKHKVYACEVTHQGLSSPVTKSFNRGEC	1.5	43.7 relative, control = 100	29.1 relative, control = 100
GpH7-A5/GpH7-B3 variant P329_08L/GpL16-k0 (antibody, human IgG1, kappa, He Ab: mutation in the GpH7-B3 H chain only) heavy 1: not shown heavy 2: not shown light: DIVMTQSPLSLPVTPGEPASISCQASESLVHSNRNTYLHWYLQKPGQSPQLLIYKVSNRFSGVPDRFSGSGSGTDFTLKISRVEAEDVGVYYCSQNTHVPPTFGQGTKVEIERTVAAPSVFIFPPSDEQLKSGTASVVCLLNNFYPREAKVQWKVDNALQSGNSQESVTEQDSKDSTYSLSSTLTLSKADYEKHKVYACEVTHQGLSSPVTKSFNRGEC	1.56	45.4 relative, control = 100	29.1 relative, control = 100
